4 substances from patent publication US20250346669A1 can be followed below.

The experiment deals with CD3 on CD3 expressing Jurkat cells (UniProt P07766). Briefly: flow cytometry on CD3 expressing Jurkat cells; concentration of half maximal binding. Background: A flow cytometer gives signals particle by particle.
The term EC50 denotes the concentration that produces a half-maximal response. In turn, “OKT3 (IgG version of the monospecific anti-CD3 antibody)” displayed an EC50 of 300 pM.
For OKT3 Fab fragment, the EC50 was 23700 pM.
In the case of “UCHT1 (IgG version of the monospecific anti-CD3 antibody)” it was 600 pM; in that of UCHT1 Fab fragment, 600 pM.
